Laboratory results as given in PMC3526285.

System: TRMT10C (MRPP1, RG9MTD1) (Homo sapiens)
Assay: EMSA
Conditions: apparent Kd; EMSA: 1 nM 5'-labelled pre-tRNA, 10 nM-1.2 uM protein, methylation/processing buffer (composition not in material) + 100 mM sucrose, 30 min at room …

Row | Substance | Kd [nM]
1 | (mt)pre-tRNAHis | 203
2 | (mt)pre-tRNAIle | 255
